Laboratory results from US20240059752A1 (ZHEJIANG DOER BIOLOGICS CO., LTD., priority 2020, published 2024).
Where no end group is shown, it is not given here. [ ]: non-standard residue; d: D form. Aib = CC(C)(N)C(=O)O

Biological target: T1, hGIPR (Homo sapiens, UniProt P48546)
T1 construct: expressed in transfected cells
T1 sequence (P48546 22-466): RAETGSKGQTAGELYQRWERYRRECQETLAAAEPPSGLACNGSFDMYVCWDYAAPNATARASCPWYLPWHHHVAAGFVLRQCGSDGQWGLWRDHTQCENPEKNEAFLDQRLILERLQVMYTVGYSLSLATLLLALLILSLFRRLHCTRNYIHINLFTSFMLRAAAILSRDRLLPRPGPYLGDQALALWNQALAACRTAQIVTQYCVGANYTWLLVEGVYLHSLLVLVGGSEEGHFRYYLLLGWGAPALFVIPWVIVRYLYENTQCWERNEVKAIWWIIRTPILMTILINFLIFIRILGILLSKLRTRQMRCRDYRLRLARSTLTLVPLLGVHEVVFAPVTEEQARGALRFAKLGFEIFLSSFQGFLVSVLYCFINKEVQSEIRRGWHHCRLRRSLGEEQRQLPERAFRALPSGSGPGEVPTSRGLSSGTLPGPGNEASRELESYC
Test: GIPR agonist activity, luciferase reporter gene assay in CHO-K1 cells
Type: cell-based
Details: % that of natural GIP peptide

P29: GCG analogue, SEQ ID No. 5, unconjugated backbone of P29F (H[Aib]QGTFTSDYSK[Aib]KDSQAAQDFVQWLLAGGPSSGAPPPS-NH2)
GIPR agonist activity relative to natural GIP peptide: about 2%
